# Measurements published in the nanobody polyreactivity screen of Harvey et al. (2022).
# Assay: yeast display, Sf9 membrane polyspecificity reagent, FACS + sequencing; frameworks hold sequencing errors
# Outline: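 Polyreactivity labels are assigned by the sorting gate from which each nanobody was recovered. The gates were low and high (top ~1%), set on anti-HA fluorescence for expression and streptavidin fluorescence for reagent binding. Before sorting, galactose-induced (36–48 hours) yeast display cells were stained for 1 hour at 4 °C with 10% biotinylated, detergent-solubilized Sf9 membrane reagent.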
row,Sequence,polyreactivity (PSR sort gate)
1,QVQLVESGGGLVQAGGSLRLSCAASGRIFPFYDMGWYRQAPGKEREFVARITLSGGSTYYADSVMGRFTISRDNAKNTVNLQMNSLKPEDTSVYYCSADRTSWSVLDFDYWGQGTQVTVSS,low polyreactivity
2,QVQLVESGGGLVQAGGSLRLSCAASGRIFPGNAMGWYRQAPGKEREFVAAINTRGGITYYADSVKGRFTISRDNAKNTVYLQMNSLKPEDTAVYYCNKRWSIRSGYPYTYGIYDYWGQGTQVTVSS,low polyreactivity
3,QVQLVESGGGLVQAGGSLRLSCAASGRIFPGYAMGWYRQAPGKERELVAAISWIGGDTYYADSVKGRFTISRDNAKNTVYLQMNSLKPEDTAVYYCAARYGRHRVSWYATWRYGYWGQGTQVTVSS,low polyreactivity
4,QVQLVESGGGLVQAGGSLRLSCAASGRIFPKNAMGWYRQAPGTERELVAAISSGGRTKYADSVKGRFTISRDNAKNTVYLQMNSLKPEDTAVYYCAAYFVSKTGGYYYWGQGTQVSVSS,high polyreactivity
5,QVQLVESGGGLVQAGGSLRLSCAASGRIFPLYAMGWYRQAPGKERELVAAITSSGGSTYYPDSVKGRFTISRDNAKNTVYLQMNSLKPEDTAVYYCAADYSVYWLDYGYWGQGTQVTVSS,low polyreactivity
6,QVQLVESGGGLVQAGGSLRLSCAASGRIFPPNAMGWYRQGPGKERELVAGITSSGDTTYYADSVKGRFTISRDHAKKTVNLQMHSLKPEDTAVNYCAKDDVYADDRSALFDYWGQGTQVTVSS,low polyreactivity
7,QVQLVESGGGLVQAGGSLRLSCAASGRIFPRYAMAWYRQAPGKERELVARITRRGGITYYADSVKGRFTISRDNAKNTVYLQMNSLKPEDTAVYYCNVDYYRGGDFSYGYDYWGQGTQVTVSS,high polyreactivity
8,QVQLVESGGGLVQAGGSLRLSCAASGRIFPRYAMGWYRQAPGKERELFATISSGGSTYYADSVKGRFTISRDNAKNTVYLQMNSLKPEDTAVYYCAARKRPYTVINGMDYWGQGTQVTVSS,low polyreactivity
9,QVQLVESGGGLVQAGGSLRLSCAASGRIFPRYAMGWYRQAPGKERELVAGINSGGRTNYADSVKGRFTISRDNAKNTVYLQMNSLKPEDTAVYYCAKRTYPYGTYRSVWGYDYWGQGTQVTVSS,low polyreactivity
10,QVQLVESGGGLVQAGGSLRLSCAASGRIFPRYAMGWYRQAPGKERELVATISSGGSTYYADSVKGRFTISRDNAKNTVYLQMNSLKPEDTAVYYCAARKRPYTVINGMDYCGQGTQVTVSS,low polyreactivity
11,QVQLVESGGGLVQAGGSLRLSCAASGRIFPSYAMGRYRQAPGKERELVAAISRSGGRTYYADSVKGRFTISRDNAKNTVYFQMNSLKPEDTAVYYCARYGPYQSSYHYDYWGQGSQVTVSS,high polyreactivity
12,QVQLVESGGGLVQAGGSLRLSCAASGRIFPSYAMGWYIQAPGKERELVAAITSSDSTYYADSVKGRFTISRDNAKNTVYLQMNSLKPEDTAVYYCAAAYSYSGWWWFGYWGQGTQVTVSS,high polyreactivity
13,QVQLVESGGGLVQAGGSLRLSCAASGRIFPSYAMGWYRQAPGKERELVAAISSSGGRTYYADSVKGRFTISRDNAKNTVYLQRNSLKPEDSAVYYCAARWVQYGVRYDYWGHGTQVTVSS,high polyreactivity
14,QVQLVESGGGLVQAGGSLRLSCAASGRIFPSYAMVWYIQAPGKEREMVATISYRGTSTYYADSVKGRFTISRDNAKNTVYLQMNSLKPEDTGVYYCNKATRHHFYYWGQGTQVTVSS,high polyreactivity
15,QVQLVESGGGLVQAGGSLRLSCAASGRIFPTNAMGWYRQAPGKERELVASITRSGSTYYADSVTGRFTISRDNAKNTVYLQMNSLKPEDTAVYYCAAYAYIFLDWGGYPYYLYEYDYWGQGTQVTVSS,low polyreactivity
16,QVQLVESGGGLVQAGGSLRLSCAASGRIFPVNDMGWYRQAPGKERELVASITYSGGSTYYADSVKGRFTISRDNAKNTVYLQMNSLKPEDTAVYYCAADDGSQYYFDSPHEYDYWGQGTQVTVSS,low polyreactivity
17,QVQLVESGGGLVQAGGSLRLSCAASGRIFPVYAMGWYRQAPGKERELVAAITSGVSTNYADSVKGRFTISRDNAKYTVYLQMNSLKPEDTAVYYCNKDYTTYPYYEYGYWGQGTQVTVSS,low polyreactivity
18,QVQLVESGGGLVQAGGSLRLSCAASGRIFPYNAMGWYIQGPGKERELVAAISGGGSSTYYADSVKGRFTISRDNAKNTVYLQMNSLKPEVTAVYYCAAQAWWDGEYDYWGQGTKVTVSS,high polyreactivity
19,QVQLVESGGGLVQAGGSLRLSCAASGRIFPYNAMGWYRQAPGKERELVAAIDWRDNTYYADSVKGRFSISRDNAKNTVYLQMNSLKPEDTAVYYCNVDYTDYFLNKYDYWGQGTQVTVSS,low polyreactivity
20,QVQLVESGGGLVQAGGSLRLSCAASGRIFPYNVMGWYRQAPGKERELVAAISSGGTTDYADSVKGRFTISRDNAKNTVYLQMNSLKPEDTAVYYCAATYVYWTWGYDYWGQGTQVTVSS,low polyreactivity
21,QVQLVESGGGLVQAGGSLRLSCAASGRIFPYYAMGWYRQAPGKERELVAAISRIGGRTYYADSVKGRFTISRDNAKNTVYLQMNSLKPEDTAVYYCAAGYGGTFNCGQGTQVTVSS,high polyreactivity
22,QVQLVESGGGLVQAGGSLRLSCAASGRIFPYYTMGWYREAPGKERELVATITTGGSTNYADSVKGRFTISRDNAENTVYLQMNSLKPEDTAVYYCNKDGVVEVRFTGRQEYDYWGQGTQVTVSS,low polyreactivity

row,Sequence,polyreactivity (PSR sort gate)
1,QVQLVESGGGLVQAGGSLRLSCAASGRIFQANAMGWYRQAPGKERELVASISSGGSTNYADSVKGRFTISRDNAKNTVYLQMNSLKPEDTAVYYCAARHPSSAYWVGYYWYDYWGQGTQVTVSS,low polyreactivity
2,QVQLVESGGGLVQAGGSLRLSCAASGRIFQDYARGWYRQAPGKERELVPSIRWSSTSTYYADSVKGRFTISRDNAKNTVYLQMNSLKPEDTAVYYCNARYPYYTRTRDGRMYYWGQGTQVTVSS,low polyreactivity
3,QVQLVESGGGLVQAGGSLRLSCAASGRIFQFNVMGWYRQAPGKERELVAAISRGGGITDYADSVKGRFTISRDNAKNTVYLQMNSLKPEDTAVYYCAAVLPARGYYWGQGTQVTVSS,high polyreactivity
4,QVQLVESGGGLVQAGGSLRLSCAASGRIFQGYAMGWYRQAPGKERELLAAITVRCGTTYYADSVKGRFTISRDNAKNTVYLQMNSLKPEDTAVYYCNAAKLIHGYQSVYPGSNSRYYYWGQGTQVTVSS,low polyreactivity
5,QVQLVESGGGLVQAGGSLRLSCAASGRIFQGYAMGWYRQAPGKERELVAAIRTGGSTNYADSVKGRFTISRDNAKNTVYLQMNSLKPEDTAVYYCNAVGQLYFYFPRGDYWGQGTQVTVSS,low polyreactivity
6,QVQLVESGGGLVQAGGSLRLSCAASGRIFQQYAMGWSRKAPGKERELVAAISRNGGSTYYADSVKGRFTISRDNAKNTVYLQMNRLKTEDTAVYYCNARRNAASTLRKDYGYWGQGTQVSVSS,high polyreactivity
7,QVQLVESGGGLVQAGGSLRLSCAASGRIFQRYAMGWYRQAPGKERELVAVITKRGGNTYYADSVKGRFTISRDNAKNTVYLQMNSLKPEDTAVYYCANRSGRSTGDYWGQGTQVTVSS,high polyreactivity
8,QVQLVESGGGLVQAGGSLRLSCAASGRIFQRYTMGWYRQAPGKEWEFVAAITYSGGSTHYADSVKGRFTISRDNAKNTVYLQMNSLKPEDTAVYYCATDYIRYRWYVFYGWLWRYDYWGQGTQVTVSS,low polyreactivity
9,QVQLVESGGGLVQAGGSLRLSCAASGRIFQYYAMGWYRQAPGKERELVAAISSRGGSTTYADSVKGRFTISRDNAKNTVYLQMNSLKPEDTAVYYCARDWYYYPQYRQRYYYWGQGTQVTVSS,high polyreactivity
10,QVQLVESGGGLVQAGGSLRLSCAASGRIFRAIAMGLYRQAPGKERELVAAISFSGGGTYYADSVKGRFTISRDNAKYTVYLQMNSLKPEDTAVYYCAADQFWGGEEYDYWGQGTQVTVSS,low polyreactivity
11,QVQLVESGGGLVQAGGSLRLSCAASGRIFRAYAMGWYRQAPGKERELVASITGSGGSTYYADSVKGRFTISRDNAKNTVYLQMNSLKPEDTAVYYCAVASYRVWGVGTRFYYWGQGTQVTVSS,high polyreactivity
12,QVQLVESGGGLVQAGGSLRLSCAASGRIFRAYARGWYRQAPGKERELVAAITRGGGTYYADSVKGRFTISRDNAKNSVYLQMNSLKPEDTAVYYCAAGRQRGPGYYFTFDYWGQGTQVTVSS,high polyreactivity
13,QVQLVESGGGLVQAGGSLRLSCAASGRIFRAYVMGWYRQAPGKERELVATIDSGTSTYYADSVKGRFTISRDNAKNTVYLQMNSLKPEDTAVYYCAVPSHSRVPESFDYWGQGTQVTVSS,low polyreactivity
14,QVQLVESGGGLVQAGGSLRLSCAASGRIFRDYAMGWYRQAPGKERELVAAISLSGGSTYYADSVKGRFTISRDIAKNTVYLQVNSLKPEDTAVYYCAAKYYYGGNGYWGQGTQVNVSS,low polyreactivity
15,QVQLVESGGGLVQAGGSLRLSCAASGRIFRDYTMGWYRTAPGKERELVAAITSGGSTYYADSVKGRFTISRDTAKNTVYLQMNSLKPEDTAVYYCNADGYVPGVDYWGLGTQVTVSS,low polyreactivity
16,QVQLVESGGGLVQAGGSLRLSCAASGRIFREYAMGWYRQAPGKERELVAAISSGASTYADSVKGRFTISRDNAKNTVYLQMNSLKPEDTAVYYCAKDIKLGPVGHSKYHRYDYWGQGTQVTVSS,low polyreactivity
17,QVQLVESGGGLVQAGGSLRLSCAASGRIFRFNAMGWYRQAPGKERELVAAITGSGGTTFYADSVKGRFTISRDNAKNTVYLQMNSLKPEDTAVYYCARQRTVKKYYYWGQGTQVTVSS,high polyreactivity
18,QVQLVESGGGLVQAGGSLRLSCAASGRIFRFYAMGCYIQAPGKERELVAVITARGGSTYYADSVKGRFTISRDNAKNNVYLQMNSLKPEDTAVYYCASTRVKGYTVVKSRRGEIDYWGQGTQVTVSS,high polyreactivity
19,QVQLVESGGGLVQAGGSLRLSCAASGRIFRFYAMGWYRQAPGKERELVAAISSSAGGTYADSVKGRFTISRDYAKNTVYLQMNSRKPEDTAVYYCAARAYALYDWGQGTQVTVSS,high polyreactivity
20,QVQLVESGGGLVQAGGSLRLSCAASGRIFRGNAMGWFRQAPGKERELVASISTSGVRTFYADSVKGRFTISRDNAKNTVYLQMNSLKPEDTAVYDCNKRDRYRMYGFNYWGQGTQVTVSS,high polyreactivity
21,QVQLVESGGGLVQAGGSLRLSCAASGRIFRGNAMGWYRQAPGKERELVATITKRGGSTYYADSVKGRFTISRDNAKNTVYLQMNSLKPEDTAVYYCNTRTYGYLTQKYDYWGQGTQVTVSS,high polyreactivity
